Reference: patent US20260123609A1

Legend:
[1] = molecular target: mouse CD98HC (NP_001154885.1) (mouse) (UniProt P10852); test: flow cytometry, spleen B cells (mCD45+ mCD19+) of wild-type C57BL/6 mouse
[2] = molecular target: mouse CD98HC (NP_001154885.1) (mouse) (UniProt P10852); test: flow cytometry, spleen T cells (mCD45+ mTCR β+) of wild-type C57BL/6 mouse
[3] = molecular target: humanized CD98HC protein (human/mouse chimeric (human amino acids 215-630 of SEQ ID NO: 2 in place of mouse amino acids 147-565 of SEQ ID NO: 1)) (UniProt P08195); test: flow cytometry, spleen T cells (mCD45+ mTCR β+) of CD98HC humanized homozygous mouse (H/H)
[4] = molecular target: humanized CD98HC protein (human/mouse chimeric (human amino acids 215-630 of SEQ ID NO: 2 in place of mouse amino acids 147-565 of SEQ ID NO: 1)) (UniProt P08195); test: flow cytometry, spleen B cells (mCD45+ mCD19+) of CD98HC humanized homozygous mouse (H/H)

Chain of UniProt P08195 (P08195 other isoform, or with tags, fused parts or gaps mutant limits assumed): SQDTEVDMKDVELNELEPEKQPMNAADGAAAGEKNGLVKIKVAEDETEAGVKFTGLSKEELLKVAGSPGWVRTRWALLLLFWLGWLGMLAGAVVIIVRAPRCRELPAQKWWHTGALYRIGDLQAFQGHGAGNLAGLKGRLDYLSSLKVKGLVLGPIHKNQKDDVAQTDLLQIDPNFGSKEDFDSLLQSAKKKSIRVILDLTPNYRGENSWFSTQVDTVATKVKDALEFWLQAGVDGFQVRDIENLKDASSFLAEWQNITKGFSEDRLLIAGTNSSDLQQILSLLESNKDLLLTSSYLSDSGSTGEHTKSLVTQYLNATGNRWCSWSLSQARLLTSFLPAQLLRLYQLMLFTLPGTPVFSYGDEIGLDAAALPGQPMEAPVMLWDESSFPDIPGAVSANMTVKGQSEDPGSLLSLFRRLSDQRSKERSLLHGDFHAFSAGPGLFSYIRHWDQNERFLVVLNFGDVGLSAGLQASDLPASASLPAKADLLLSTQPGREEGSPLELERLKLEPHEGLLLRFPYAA
Chain of UniProt P10852 (P10852 other isoform, or with tags, fused parts or gaps): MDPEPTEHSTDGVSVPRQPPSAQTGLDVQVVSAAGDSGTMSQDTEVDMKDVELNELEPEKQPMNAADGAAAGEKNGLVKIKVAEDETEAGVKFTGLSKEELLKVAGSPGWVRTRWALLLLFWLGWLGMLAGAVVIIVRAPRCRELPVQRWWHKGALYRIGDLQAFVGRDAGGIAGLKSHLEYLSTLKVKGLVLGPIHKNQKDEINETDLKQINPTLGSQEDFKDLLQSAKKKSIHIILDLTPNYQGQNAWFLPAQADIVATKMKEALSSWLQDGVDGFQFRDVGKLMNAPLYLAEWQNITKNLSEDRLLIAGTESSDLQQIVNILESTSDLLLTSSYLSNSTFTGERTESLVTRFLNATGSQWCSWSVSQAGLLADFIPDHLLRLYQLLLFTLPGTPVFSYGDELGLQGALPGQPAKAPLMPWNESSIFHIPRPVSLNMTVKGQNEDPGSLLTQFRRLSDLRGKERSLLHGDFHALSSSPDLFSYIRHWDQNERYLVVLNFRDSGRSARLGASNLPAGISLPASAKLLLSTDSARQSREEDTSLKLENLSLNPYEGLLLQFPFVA

## APC anti-mouse CD98 (4F2) Antibody (Biolegend, Catalog number: 128211)
[1]
  percentage of positive cells: 17.2%
[2]
  percentage of positive cells: 14.7%
[3]
  percentage of positive cells: 0.27%
[4]
  percentage of positive cells: 0.3%

## FITC anti-human CD98 Antibody (Biolegend, Catalog number: 315603)
[1]
  percentage of positive cells: 0.82%
[2]
  percentage of positive cells: 0.45%
[3]
  percentage of positive cells: 27.6%
[4]
  percentage of positive cells: 27.1%
